Assay results from the supplement of paper PMC10724198.
± gives the standard deviation of the averaged measurements.

Test system: Saccharomyces cerevisiae
Experiment: protein stability index of tFT-peptide fusion (C-terminal peptide) (PSI (0-1 scale)); higher = more stable (slower turnover)
Settings: genetic background: wild type; temperature: 30 C
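Further: PSI is a weighted mean of sequencing reads over stability bins, variants kept only with over 10 reads, mCherry proximal and sfGFP distal, peptide attached via GGGS linker.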

Row | Sequence | protein stability index
1 | ESNFTLIRKIRT | 0.64 ± 0.0065
2 | DSSLDWGREARA | 0.649 ± 0.075
3 | RAARVSVVAYPF | 0.682 ± 0.0094
4 | FSPSPPPPAPLH | 0.729 ± 0.13
5 | KLKTKQNKERNK | 0.757 ± 0.076
6 | CIFCCGWCLDRL | 0.719 ± 0.058
7 | SMEVRGLKVRSC | 0.617 ± 0.015
8 | RPLPPLPPPSCP | 0.71 ± 0.046
9 | WRSIQLVHDKRR | 0.6808 ± 0.0056
10 | LGLQHPSAWLFP | 0.678 ± 0.045
11 | VLFPLPFPCVSF | 0.681 ± 0.06
12 | DIRRWQWWFMVR | 0.613 ± 0.082
13 | RRKGVAGKWARR | 0.586 ± 0.058
14 | GFFSCAPFPFNG | 0.741 ± 0.082
15 | LDLLIVNFFNLV | 0.69 ± 0.13
16 | NEHTTLKITKNK | 0.6818 ± 0.003
17 | GVVWMSCGGGWG | 0.7543 ± 0.0068
18 | RQKNKIATVVEE | 0.664 ± 0.026
19 | FFRSFVVGSVLV | 0.567 ± 0.0064
20 | GGVGGGVRRPGE | 0.669 ± 0.034
21 | VGGDRVGPEPEC | 0.718 ± 0.063
22 | CFSCLWVPLLPS | 0.649 ± 0.008
23 | LHPPPLPQAPPT | 0.684 ± 0.09
24 | RTPMAIDALCGS | 0.637 ± 0.045
25 | LLALHPLRSWPP | 0.665 ± 0.016
26 | VVPSRCCQRLRK | 0.716 ± 0.035

Row | Sequence | protein stability index
27 | QFSSPPLPLLSP | 0.629 ± 0.035
28 | EGNPPTRPRSLG | 0.682 ± 0.052
29 | ICGGTNFPLGSV | 0.741 ± 0.032
30 | VLLLLYGMFRGR | 0.59 ± 0.0094
31 | PSLLLPPYSSAP | 0.743 ± 0.021
32 | LLKLSVPPSLYV | 0.5722 ± 0.0011
33 | APPPPPPPPSFP | 0.687 ± 0.055
34 | RKKGRKKKQDKN | 0.689 ± 0.023
35 | THCSGAGPPSPP | 0.689 ± 0.068
36 | SVGFYMLECVDD | 0.688 ± 0.0099
37 | GSLFVNRNCTVS | 0.697 ± 0.19
38 | HGSRGGIINEEG | 0.642 ± 0.082
39 | LGYGERAGVGKR | 0.6954 ± 0.0049
40 | QSPSALAEGPDD | 0.641 ± 0.099
41 | RSLVALSRRLRG | 0.6374 ± 0.0023
42 | LDVSGEVRVGRG | 0.629 ± 0.013
43 | SSLPRPSHSLSL | 0.617 ± 0.068
44 | HPETIGHNVRPR | 0.708 ± 0.048
45 | MGRQSCCHKTSG | 0.643 ± 0.042
46 | GQVACLVSREYT | 0.69 ± 0.018
47 | PHSPLPAHPPCR | 0.745 ± 0.14
48 | KIMIGQPDGINV | 0.65 ± 0.015
49 | GAMVVRSSSPWT | 0.685 ± 0.019
50 | SGFPSCFRPSFY | 0.702 ± 0.021
51 | CFVSFFWRCFFG | 0.515 ± 0.045
52 | RLLENVSYDWRN | 0.714 ± 0.016

Row | Sequence | protein stability index
53 | ICGLWVCLGHGF | 0.595 ± 0.067
54 | VGYGEVSGGGRM | 0.732 ± 0.026
55 | GQEGQIPPGNVH | 0.709 ± 0.011
56 | FCSLLDSLVGGC | 0.745 ± 0.072
57 | CPPPFLCSPFVA | 0.669 ± 0.022
58 | GTYPGAGWRYEW | 0.694 ± 0.037
59 | LTKHQITKKAER | 0.73 ± 0.078
60 | VIFCFCSRSCFL | 0.643 ± 0.037
61 | DWHLLVRRPFSR | 0.714 ± 0.042
62 | ITFTCRHQGKKK | 0.759 ± 0.095
63 | PPLPLPSPRPPP | 0.619 ± 0.0092
64 | RRADFSWPVVVE | 0.591 ± 0.022
65 | LTFPILPVSTRV | 0.603 ± 0.025
66 | VRSFSFSALLAV | 0.58 ± 0.024
67 | FDSSLFTVSQYH | 0.768 ± 0.084
68 | VCVAACVGAHFA | 0.656 ± 0.083
69 | VPAPLPRTSPPS | 0.673 ± 0.053
70 | VCALGWWASWVW | 0.5512 ± 0.0013
71 | IYSWSAALFHCR | 0.75 ± 0.1
72 | PTYDSLPLLDNC | 0.673 ± 0.014
73 | LSDLDSMVMIVP | 0.869 ± 0.16
74 | RVFTGLCRPFGV | 0.736 ± 0.012
75 | LPPSRSPPPFPL | 0.728 ± 0.048
76 | ILGVVLRLCNCQ | 0.7834 ± 0.0055
77 | NHTKAGTEKNKN | 0.618 ± 0.067
78 | RVCYVYIGVTMH | 0.634 ± 0.19

Row | Sequence | protein stability index
79 | SPQFLLPRALSP | 0.695 ± 0.0042
80 | VGTAVVDRHGVR | 0.603 ± 0.045
81 | VVGALRFSDLFK | 0.73 ± 0.042
82 | KKEGIWEGERVG | 0.724 ± 0.011
83 | HCSWRSLMTLAG | 0.642 ± 0.031
84 | EKIVHEGAHGWR | 0.681 ± 0.02
85 | RGGGVRYGVARR | 0.68 ± 0.059
86 | DHVSTVEQKLFF | 0.701 ± 0.031
87 | GWGGCGGWGFVG | 0.605 ± 0.011
88 | HTPTLPLHPPRY | 0.642 ± 0.037
89 | AARSEVASAAGR | 0.643 ± 0.016
90 | PESPLFPPLLPS | 0.6599 ± 0.0018
91 | THTPPPSPLTLP | 0.671 ± 0.021
92 | GVGCVGGGSSCA | 0.67 ± 0.1
93 | QDLIVENGSVSG | 0.655 ± 0.009
94 | PPPRLRSPHGLF | 0.718 ± 0.08
95 | VLSRVSMSLGSP | 0.767 ± 0.16
96 | RKNENKKKKNKK | 0.702 ± 0.012
97 | FTYGPVQGAARG | 0.717 ± 0.015
98 | NLETDRRRTYGM | 0.697 ± 0.036
99 | SVGGVGVEIQSV | 0.629 ± 0.15
100 | ELCAFLFYPFVV | 0.599 ± 0.039
101 | PPPPTPRYRAPL | 0.671 ± 0.057
